The results in this text go back to article PMC4289673 (Proteins, 2014).

This series deals with the molecule itself. Kind of series: crystal structure.

B1: R47A hACMSD (enzyme)
chain: not shown
Consider B1, for which the binding result is “binds”.
